Data as given in PMC12432433.

What was measured:
[1] = target: β-D-xylosidase LbXyn43B from Levilactobacillus brevis DSM1269 (Levilactobacillus brevis DSM 1269); experiment: crystal structure; X-ray, 1.9 Å, space group P 1 21 1, four chains (A-D); crystals from 27-29% PEG 1500, 60-140 mM malonate-imidazole-borate buffer, pH 4.0-4.5, 4°C
[2] = target: β-D-xylosidase LbXyn43B from Levilactobacillus brevis DSM1269 (Levilactobacillus brevis DSM 1269); experiment: SEC; Sephacryl S-300 (110 mL), 0.1 mL/min, 50 mM sodium phosphate, 150 mM NaCl, pH 7.0; calibrated with molecular weight standards of 20-700 kDa; apparent molecular mass
[3] = target: β-D-xylosidase LbXyn43B from Levilactobacillus brevis DSM1269 (Levilactobacillus brevis DSM 1269); experiment: SEC-MALS; OMNISEC multi-detection SEC: Superdex 200 Increase 10/300 GL, light scattering (RALS 90°, LALS 7°), refractive index, viscometer, UV/VIS; 50 µL of 4.5 mg/mL injected in triplicate; 50 mM sodium phosphate, pH 7, 150 mM NaCl; 0.5 mL/min
[4] = target: LbXyn43B/Thr274Ala (Levilactobacillus brevis DSM 1269); experiment: SEC; Sephacryl S-300 (110 mL), 0.1 mL/min, 50 mM sodium phosphate, 150 mM NaCl, pH 7.0; calibrated with molecular weight standards of 20-700 kDa; apparent molecular mass
[5] = target: LbXyn43B/Thr274Ala (Levilactobacillus brevis DSM 1269); experiment: SEC-MALS; OMNISEC multi-detection SEC: Superdex 200 Increase 10/300 GL, light scattering (RALS 90°, LALS 7°), refractive index, viscometer, UV/VIS; 50 µL of 4.5 mg/mL injected in triplicate; 50 mM sodium phosphate, pH 7, 150 mM NaCl; 0.5 mL/min

## β-D-xylosidase LbXyn43B from Levilactobacillus brevis DSM1269 (enzyme)
[1]
  stoichiometry N: 4
[2]
  stoichiometry N: 4
[3]
  fraction of sample in peak 1 (tetramer): 84.9%
  stoichiometry N: 4

## LbXyn43B/Thr274Ala (enzyme)
[4]
  stoichiometry N: 3
[5]
  fraction of sample in peak 1 (tetramer): 91.3%
  stoichiometry N: 4
